From paper PMC4219786, “Glycan Dependence of Galectin-3 Self-Association Properties” (PLoS ONE, 2014)

Legend:
[1] = target: T1, Galectin-3 (Homo sapiens, UniProt P17931); test: SPR steady-state KD; 1H-15N HSQC NMR titration (slow exchange); assay type: binding
T1 construct: gene LGALS3; CRD domain (114–250), C-terminal 6His-tag

[2] = target: human Galectin-3 Carbohydrate Recognition Domain (114-250) (human) (UniProt P17931); test: dynamic light scattering; before filtration, after purification and freezing at -80°C; no glycan; 41 µM CRD, 37 µM FL; 5 mM potassium phosphate pH 7.4; 25°C
[3] = target: full length human Galectin-3 (1-250) (human) (UniProt P17931); test: as above
[4] = target: full length human Galectin-3 (1-250) (human) (UniProt P17931); test: dynamic light scattering; after centrifugation and filtration; with 140 µM LNnT (CRD up to 1.2 mM LNnT); 41 µM CRD, 37 µM FL; 5 mM potassium phosphate pH 7.4; 25°C

T1 sequence (P17931 114-250): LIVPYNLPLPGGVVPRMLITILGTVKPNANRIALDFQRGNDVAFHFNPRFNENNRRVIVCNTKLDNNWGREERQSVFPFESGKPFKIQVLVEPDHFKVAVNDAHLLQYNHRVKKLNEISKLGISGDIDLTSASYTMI

## CC(=O)N[C@H]1[C@H](O[C@H]2[C@@H](O)[C@@H](CO)O[C@@H](O[C@H]3[C@H](O)[C@@H](O)C(O)O[C@@H]3CO)[C@@H]2O)O[C@H](CO)[C@@H](O[C@@H]2O[C@H](CO)[C@H](O)[C@H](O)[C@H]2O)[C@@H]1O (some centres unmarked) [LNnT, lacto-N-neoTetraose]
[1]
  Kd: 140 ± 17 µM

## human Galectin-3 Carbohydrate Recognition Domain (114-250) (from UniProt P17931 114-250) (domain or fragment)
[2]
  % mass of size >100 nm: 0.7%

## full length human Galectin-3 (1-250) (from UniProt P17931 1-250) (natural protein)
[3]
  % mass of size >100 nm: 67%
[4]
  % mass of size <100 nm (46.73 nm), with 140 µM LNnT: 8.7%
  % mass of size >100 nm, with 140 µM LNnT: 91.3%
